# Assay results as given in PMC9605866, “Structures of the TMC-1 complex illuminate mechanosensory transduction” (Nature, 2022).
# What was measured:
# [1] = biological target: the molecule itself; assay: single-molecule pulldown (SiMPull) with photobleaching step counting; SEC-purified mVenus-tagged TMC-1 complex (Flag peptide elution) diluted 1:200, captured on biotinylated anti-GFP nanobody on streptavidin/PEG slides, TIRF; 20 mM Tris pH 8.0, 150 mM NaCl, 0.02% GDN, 3 mM CaCl2; 600 molecules from 3 movies
# [2] = biological target: the molecule itself; assay: cryo-EM structure; native TMC-1 complex in GDN, 20 mM Tris-Cl pH 8.5, 150 mM NaCl, 3 mM CaCl2, on 2 nm carbon-coated grids; one dataset, three classes: expanded, contracted, with ARRD-6
Protein,stoichiometry N [1],stoichiometry N [2]
"transmembrane channel-like protein 1 (TMC-1) with C-terminal mVenus and 3×Flag tag, from tmc-1::mVenus knock-in worms (natural protein, C. elegans, UniProt D3KZG3 1-1285, looked up, TMC-1, C. elegans, endogenous gene (Wormbase T13G4.3.1); mVenus-3×Flag inserted immediately before the stop codon, PreScission (3C) site between the C terminus of TMC-1 and mVenus; residues M1 to D1285; that sample was afterwards eluted by 3C cleavage and run on SEC) and as imaged in SiMPull (Flag peptide elution, mVenus kept); also called TMC-1-mVenus-3×Flag; mVenus-tagged TMC-1; source: …) MQEAARRASLRKEHTPTNEKFGDLSKQDSLGERASSKLTLDDELYDILYAFGETDAFINKGDKQRETDEDGNPLTRQALLERIRQKKEVIGKLRCQAWSMTRKRRTLKLAQKYLEQHESKVSRSHLYMEEMRKRARLMKRSFSNFKTYLIPWESKIKRIESHFGSVVSSYFTFLRWIVFVNIMITLIALVFVVLPETLADSVANEGRFNRTKTRKQIPANERVHADELAVVWHYDGYLRYSPLFYGYYSDDPFLGNKIKYALPLAYFMVTLTIFAYSFFAILRKMAANARMSKLSGSKAEQYIFNWKLFTGWDYTIGNSETASNTVMAVVIKLRESIADIKKDAHGKFRLLQFSLRVFANIIICAMLGFSIYCIIFAVQKSQVQDDGNLFTKNQVPSVVSTITHVFPMIFDLIGKMENYHPRTALRAHLGRVLILYTVNYITLIFALFEKMTALRDRVNSTSTSSSHRTKRQQGGWNPNMQRPPPYASRAEVRQMSDFLAANTRRFQTVSQRTTRSVTTPFTVAPQFGPFNVNNPNAVFHNGTHSTSFESQILGPKALPIFTPPPRKYPGFTPGNVGQQFGGPDFPRNQVYTKSTPLPRVRTKPPWVYTTTHPPLVQNRAMTTTMSKSAKKGNSKNLDDDILLSNETIQMSEAALRRNHDGHNNDICWETIIGQEIVKLVTMDLIFTILSILVIDLFRGLWIKYCSSWWCWDIETTFPEYGEFKVAENVLHIINNQGMIWLGLFFAPLLPAINNIKLIILMYIRGWAVMTCNVPAREIFRASRSSNFYLGILLIWLLLCTLPVGFVIASMSPSRSCGPFARYQHFYTVVTREIEKRVDQTVLSYIRHIASPGVVIPIILFLILIIYFLFSLVRGLREANTDLQAQLVHERTEEKKKIFELAGGKKNKFEKDRDKKRSNDYIPLIEQRRREPWRQYHEMEADHALASDSSEESDINEDEDDERQPLTAYPLRAIETPPETLQVTAFHPSLGSLIENREMEDEESASGDQLPMIHKSVSFQGPSHMQMRQSISTESCSQISRSAIQVATPEEIRALLRPYLEAKYGIPYQHGIKSFPIDVHTPPNNTPSRRSSKYNSFVSLYEHTRDDHKNFVASTIKETDEDPGKSDKKQTSSKDVAPDFMPWPSADEARALREKMKSKTPLMLTKTTVEEKPKGGKSSESEFRPPVPIHRKYNIQTTEEENEEEETDSAPESSKKRFRISVSPTKTIAPASASRAQHKIVSQASSSSSIPHGRQPDPNKKASLVLPPLRAPRVQFDEDDSPRQID",2,
"transmembrane channel-like protein 1 (TMC-1), native, after 3C protease elution (natural protein, C. elegans, UniProt D3KZG3 1-1285, looked up, N-glycan at N209, TMC-1, C. elegans, endogenous gene (Wormbase T13G4.3.1); residues M1 to D1285; not modelled: M1-P73, S460-N663, L886-D1285; Residues of the 3C site may remain at the C terminus after cleavage; Two copies stand in the complex (two-fold symmetric dimer); also called TMC-1 subunit; TMC-1 protomer; source: endogenous tmc-1 locus, tmc-1::mVenus knock-in worms; purified (anti-Flag M2 resin, 3C protease …)) MQEAARRASLRKEHTPTNEKFGDLSKQDSLGERASSKLTLDDELYDILYAFGETDAFINKGDKQRETDEDGNPLTRQALLERIRQKKEVIGKLRCQAWSMTRKRRTLKLAQKYLEQHESKVSRSHLYMEEMRKRARLMKRSFSNFKTYLIPWESKIKRIESHFGSVVSSYFTFLRWIVFVNIMITLIALVFVVLPETLADSVANEGRFNRTKTRKQIPANERVHADELAVVWHYDGYLRYSPLFYGYYSDDPFLGNKIKYALPLAYFMVTLTIFAYSFFAILRKMAANARMSKLSGSKAEQYIFNWKLFTGWDYTIGNSETASNTVMAVVIKLRESIADIKKDAHGKFRLLQFSLRVFANIIICAMLGFSIYCIIFAVQKSQVQDDGNLFTKNQVPSVVSTITHVFPMIFDLIGKMENYHPRTALRAHLGRVLILYTVNYITLIFALFEKMTALRDRVNSTSTSSSHRTKRQQGGWNPNMQRPPPYASRAEVRQMSDFLAANTRRFQTVSQRTTRSVTTPFTVAPQFGPFNVNNPNAVFHNGTHSTSFESQILGPKALPIFTPPPRKYPGFTPGNVGQQFGGPDFPRNQVYTKSTPLPRVRTKPPWVYTTTHPPLVQNRAMTTTMSKSAKKGNSKNLDDDILLSNETIQMSEAALRRNHDGHNNDICWETIIGQEIVKLVTMDLIFTILSILVIDLFRGLWIKYCSSWWCWDIETTFPEYGEFKVAENVLHIINNQGMIWLGLFFAPLLPAINNIKLIILMYIRGWAVMTCNVPAREIFRASRSSNFYLGILLIWLLLCTLPVGFVIASMSPSRSCGPFARYQHFYTVVTREIEKRVDQTVLSYIRHIASPGVVIPIILFLILIIYFLFSLVRGLREANTDLQAQLVHERTEEKKKIFELAGGKKNKFEKDRDKKRSNDYIPLIEQRRREPWRQYHEMEADHALASDSSEESDINEDEDDERQPLTAYPLRAIETPPETLQVTAFHPSLGSLIENREMEDEESASGDQLPMIHKSVSFQGPSHMQMRQSISTESCSQISRSAIQVATPEEIRALLRPYLEAKYGIPYQHGIKSFPIDVHTPPNNTPSRRSSKYNSFVSLYEHTRDDHKNFVASTIKETDEDPGKSDKKQTSSKDVAPDFMPWPSADEARALREKMKSKTPLMLTKTTVEEKPKGGKSSESEFRPPVPIHRKYNIQTTEEENEEEETDSAPESSKKRFRISVSPTKTIAPASASRAQHKIVSQASSSSSIPHGRQPDPNKKASLVLPPLRAPRVQFDEDDSPRQID",,2
